{
  "source": "paper PMC5146279",
  "about": "“Atomic structure of the innexin-6 gap junction channel determined by cryo-EM” (Nature Communications, 2016)",
  "proteins": {"B1": {"name": "Caenorhabditis elegans innexin-6 (INX-6) wild type (natural protein, UniProt Q9U3N4 1-389, looked up)", "chain": "MASQVGAINSVNALISRVFVQPKGDLADRLNSRVTVVILAVSSALLLSSHFIGDPITCWTPAQFNAQWVNFVNQYCFVHGTYFVPLDQQLAFEEEERTKVSIQYYQWVPYVFALQAFLFYIPRFIWKAMIAYSGYDLAAAVKYVDRFWSENRDKDDKFKTRLAAFEGRPSVYIWDGIRLARKKRSRNMALFYTLSTVWQAVNAWIQFYILTQLLDSSIYTLWGPSILGDLLQGNDWQTTGHFPRIVHCDFNRRRPASVQLDTVLCVLTLNIYYEKLFIFLWFWLVFVAVVSTVNCFKWIYYLCNKTKAQKTIKNYLSTAPIKSTISDDQFFSALGEDGLFIMDQMALNLGDIPASYLTISMRNICQDFIESEDYIDEERTPFVKSIKHT", "notes": "Innexin-6 (INX-6), C. elegans, wild type; Eight copies form a hemichannel and 16 copies the docked gap junction channel; also called INX-6 WT; INX-6 hemichannel; source: Sf9 cells infected with recombinant virus, purified (Ni-NTA, tag digested, gel filtration, GraDeR); not shown: GFP, C-terminal, cleaved; His8, C-terminal, cleaved; copies: 16"}},
  "key": {"[1]": {"biological_target": "the molecule itself", "assay": "cryo-EM structure; INX-6 gap junction channel by single-particle analysis, 35,608 particles, D8 symmetry, 3.6 Å; sample after GraDeR, 10 mM Tris pH 7.5, 500 mM NaCl"}, "[2]": {"biological_target": "the molecule itself", "assay": "cryo-EM structure; INX-6 hemichannel (docked class) by single-particle analysis, 74,398 particles, C8 symmetry, 3.3 Å; sample after GraDeR, 10 mM Tris pH 7.5, 500 mM NaCl"}},
  "data": [
    {"protein": "B1", "values": [
      {"measurement": "stoichiometry N", "setting": "[1]", "value": 16},
      {"measurement": "stoichiometry N", "setting": "[2]", "value": 8}
    ]}
  ]
}
